Test results taken from patent publication US20170204167A1.

Assays:
[1] = target: HA of H7 pseudovirus (A/chicken/Italy/99) in which the glycosylation site (Asn-38) was removed (influenza A virus H7 A/chicken/Italy/99); assay: cell-based or functional assay
[2] = target: HA of H7N3 A/Canada/444/04 (influenza A virus H7N3 A/Canada/444/04); assay: ELISA on recombinant or purified HA
[3] = target: HA of H5N1 A/Viet Nam/1203/04 (influenza A virus H5N1 A/Viet Nam/1203/04); assay: ELISA on recombinant or purified HA
[4] = target: HA of H8N4 A/Alberta/357/84 (influenza A virus H8N4 A/Alberta/357/84); assay: ELISA on recombinant or purified HA
[5] = target: HA of H4N6 A/duck/Czechoslovakia/56 (ELISA antigen) (influenza A virus H4N6 A/duck/Czechoslovakia/56) (UniProt P19696); assay: ELISA on recombinant or purified HA
[6] = target: HA of H9 A/HK/1073/99 (influenza A virus H9N2 A/Hong Kong/1073/99); assay: ELISA on recombinant or purified HA
[7] = target: HA of H13N6 A/gull/Maryland/704/77 (ELISA antigen) (influenza A virus H13N6 A/gull/Maryland/704/77) (UniProt P13103); assay: ELISA on recombinant or purified HA
[8] = target: HA of H5N1 A/Viet Nam/1/05 (influenza A virus H5N1 A/Viet Nam/1/05); assay: ELISA on recombinant or purified HA
[9] = target: HA of H6N5 A/shearwater/Australia/1/72 (influenza A virus H6N5 A/shearwater/Australia/1/72); assay: ELISA on recombinant or purified HA
[10] = target: HA of H2N2 A/Singapore/1/57 (influenza A virus H2N2 A/Singapore/1/57) (UniProt Q67333); assay: ELISA on recombinant or purified HA
[11] = target: HA of H10N4 A/mink/Sweded/3900/84 (influenza A virus H10N4 A/mink/Sweded/3900/84); assay: ELISA on recombinant or purified HA
[12] = target: HA of H3N2 A/Brisbane/10/07 (influenza A virus H3N2 A/Brisbane/10/07); assay: ELISA on recombinant or purified HA
[13] = target: HA of H3N2 A/Wyoming/3/03 (influenza A virus H3N2 A/Wyoming/3/03); assay: ELISA on recombinant or purified HA
[14] = target: HA of H3N2 A/New York/55/04 (influenza A virus H3N2 A/New York/55/04); assay: ELISA on recombinant or purified HA
[15] = target: HA of H1N1 A/Brisbane/59/07 (influenza A virus H1N1 A/Brisbane/59/07); assay: ELISA on recombinant or purified HA

Substance | neutralization of H7 pseudovirus, IC50 [1] [µg/mL] | EC50 [2] [µg/mL] | EC50 [3] [µg/mL] | EC50 [4] [µg/mL] | EC50 [5] [µg/mL] | EC50 [6] [µg/mL] | EC50 [7] [µg/mL] | EC50 [8] [µg/mL] | EC50 [9] [µg/mL] | EC50 [10] [µg/mL] | EC50 [11] [µg/mL] | EC50 [12] [µg/mL] | EC50 [13] [µg/mL] | EC50 [14] [µg/mL] | EC50 [15] [µg/mL]
CR6261 (antibody) | > 50 | – | – | – | – | – | – | – | – | – | – | – | – | – | –
F10 (antibody) | > 50 | – | – | – | – | – | – | – | – | – | – | – | – | – | –
ctr (control antibody of Table 8) | – | > 20 | > 20 | > 20 | > 20 | > 20 | > 20 | > 20 | > 20 | > 20 | > 20 | > 20 | > 20 | > 20 | > 20
